“And” between values parts separate entries of the source, which are not always exact repeats. Equal values may be shown once.

The target in test [1] is T1, human CD37 (human, UniProt P11049 1-278).
T1 sequence: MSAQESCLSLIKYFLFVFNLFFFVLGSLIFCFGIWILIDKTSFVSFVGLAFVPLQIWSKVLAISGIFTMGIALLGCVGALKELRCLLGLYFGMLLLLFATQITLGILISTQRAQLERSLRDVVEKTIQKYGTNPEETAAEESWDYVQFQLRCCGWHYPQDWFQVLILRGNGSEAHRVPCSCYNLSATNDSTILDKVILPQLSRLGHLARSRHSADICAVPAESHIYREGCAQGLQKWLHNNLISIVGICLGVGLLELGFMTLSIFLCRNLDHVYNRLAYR
Put plainly: cell-based or functional assay.

The target of test [2] is T1, human CD37. Put plainly: flow cytometry titration; apparent Kd; cells not named.
Test [3] addresses T1, human CD37. Put plainly: flow cytometry titration on BJAB cells; apparent Kd. As to the method: (§1) Binding specificity was tested by flow cytometry using purified antibodies. […] All murine antibodies were incubated for 3 h with either CD37-expressing 300-19 cells or the non-transfected 300-19 cells (1×10⁵ cells per sample) in 100 μL FACS buffer (RPMI-1640 medium supplemented with 2% normal goat serum). Then, the cells were pelleted, washed, and incubated for 1 h with 100 μL of FITC-conjugated goat anti-mouse IgG-antibody (Jackson Laboratory, 6 μg/mL in FACS buffer). The cells were pelleted again, washed with FACS buffer and resuspended in 200 μL of PBS containing 1% formaldehyde. Samples were acquired using a FACSCalibur flow cytometer with the HTS multiwell sampler or a FACS array flow cytometer and analyzed using CellQuest Pro (all from BD Biosciences, San Diego, US).
The humanized antibodies huCD37-38, huCD37-50, huCD37-51, huCD37-56 and chCD37-57 were assayed for their binding affinity to BJAB cells in comparison to their murine counterparts. Flow cytometry binding assays were carried out using secondary FITC-conjugated goat-anti-murine and -anti-human antibodies, analyzed as described in Example 2 and dose-response curves were generated by non-linear regression for each antibody. The value for the apparent dissociation constant (Kd) of each antibody was calculated using GraphPad Prism v4 (GraphPad software, San Diego, Calif.).

For test [4], the target named is T2, macaque CD37 (macaque, UniProt P11049 1-277 (human entry)).
T2 construct: Expressed on 300-19 cells transfected with pSRa-CD37mac (300-19/CD37mac cells); also called macaca CD37; macaque derived CD37 antigen
T2 chain: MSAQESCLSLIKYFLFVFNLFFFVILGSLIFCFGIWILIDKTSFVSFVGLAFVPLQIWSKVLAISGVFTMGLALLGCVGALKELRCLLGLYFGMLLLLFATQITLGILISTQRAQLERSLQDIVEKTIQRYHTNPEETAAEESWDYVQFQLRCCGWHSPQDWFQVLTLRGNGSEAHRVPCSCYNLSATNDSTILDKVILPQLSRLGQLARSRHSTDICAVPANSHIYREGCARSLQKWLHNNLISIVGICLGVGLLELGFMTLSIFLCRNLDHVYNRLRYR
Kind of test: flow cytometry titration on 300-19/CD37mac cells; apparent Kd. As for the experimental part: as §1
Flow cytometry binding assays were carried out using secondary FITC-conjugated goat-anti-human antibodies, analyzed as described in Example 2 and dose-response curves were generated by non-linear regression for each antibody. The value for the apparent dissociation constant (Kd) of each antibody was calculated using GraphPad Prism v4 (GraphPad software, San Diego, Calif.).

B1: huCD37-56-SMCC-DM1 (antibody, human IgG1, kappa, V domains shown)
VH: QVQLQESGPGLVKPSQSLSLTCTVSGYSITSGFAWHWIRQFPGKGLEWMGYIHYSGGTNYNPSLKSRVSITRDTSKNQFFLQLNSVTAADTATYYCARGYYGFGAWFAYWGQGTLVPVSA
VL: DIVLTQSPAFMSASPGEKVTMTCSASSSVTYMHWYQQKPDQSPKRWIYDTSNLASGVPSRFSGGGSGTDYSLTISSMEAEDAATYYCQQWISDPPTFGQGTKLEIKR
modifications: DM1 attached through SMCC linker; attachment residues and load not stated
notes: SMCC-DM1 conjugate of huCD37-56
As to B1, the “EC50 of in vitro cytotoxicity, WST-8 assay, Daudi cells” value (“EC50 … WST-8 assay, Daudi cells” for short) in test [1] stood at 0.31 nM. For the same molecule, the Kd in test [2] was found to be 0.34 nM.

B2: huCD37-56 (antibody, human IgG1, kappa, V domains shown)
VH: QVQLQESGPGLVKPSQSLSLTCTVSGYSITSGFAWHWIRQFPGKGLEWMGYIHYSGGTNYNPSLKSRVSITRDTSKNQFFLQLNSVTAADTATYYCARGYYGFGAWFAYWGQGTLVPVSA
VL: DIVLTQSPAFMSASPGEKVTMTCSASSSVTYMHWYQQKPDQSPKRWIYDTSNLASGVPSRFSGGGSGTDYSLTISSMEAEDAATYYCQQWISDPPTFGQGTKLEIKR
notes: Humanized antibody
Regarding B2, the Kd in test [3] amounted to 0.2 nM; in test [2], 0.3 nM; in test [4], 5 nM.

B3: huCD37-3-PEG4-mal-DM1 (antibody, human IgG1, kappa, V domains shown)
VH: QVQVQESGPGLVAPSQTLSITCTVSGFSLTTSGVSWVRQPPGKGLEWLGVIWGDGSTNYHPSLKSRLSIKKDHSKSQVFLKLNSLTAADTATYYCAKGGYSLAHWGQGTLVTVSS
VL: DIQMTQSPSSLSVSVGERVTITCRASENIRSNLAWYQQKPGKSPKLLVNVATNLADGVPSRFSGSGSGTDYSLKINSLQPEDFGTYYCQHYWGTTWTFGQGTKLEIKR
modifications: DM1 attached through PEG4-mal linker; attachment residues not stated; 3.5-4 maytansinoid molecules per antibody
notes: heavy chain version as for huCD37-3, see its note
B3: in test [1], the “EC50 of in vitro cytotoxicity, BJAB cells” value is 0.01 nM; the “EC50 of in vitro cytotoxicity, Daudi cells” value is 0.018 nM; the “EC50 of in vitro cytotoxicity, Granta-519 cells” value was determined as 0.012 nM; the “EC50 of in vitro cytotoxicity, Namalwa cells” value came out at 0.024 nM. For the same molecule, in test [1], the “EC50 of in vitro cytotoxicity, Raji cells” value worked out at 0.045 nM; the “EC50 of in vitro cytotoxicity, Raji-VCR cells” value worked out at 0.037 nM; the “EC50 of in vitro cytotoxicity, Ramos cells” value was found to be 0.069 nM; the “EC50 of in vitro cytotoxicity, SU-DHL-4 cells” value is 0.024 nM. Moreover, in test [2], the Kd came out at 0.35 nM.

B4: huCD37-50-SMCC-DM1 (antibody, human IgG1, kappa, V domains shown)
VH: QVQLQESGPGLLKPSQSLSLTCTVSGYSITSGFAWHWIRQHPGNKLEWMGYILYSGSTVYSPSLKSRISITRDTSKNHFFLQLNSVTAADTATYYCARGYYGYGAWFAYWGQGTLVTVSA
VL: EIVLTQSPATMSASPGERVTMTCSATSSVTYMHWYQQKPGQSPKRWIYDTSNLPYGVPARFSGSGSGTSYSLTISSMEAEDAATYYCQQWSDNPPTFGQGTKLEIKR
modifications: DM1 attached through SMCC linker; attachment residues and load not stated
notes: SMCC-DM1 conjugate of huCD37-50
Regarding B4, in test [1], the “EC50 … WST-8 assay, Daudi cells” value was 0.13 nM and the “EC50 of in vitro cytotoxicity, WST-8 assay, Granta-519 cells” value came to 0.12 nM. The Kd in test [2] turned out to be 0.7 nM.

B5: huCD37-51 (antibody, human IgG1, kappa, V domains shown)
VH: EVQLVESGPEVLKPGESLSLTCTVSGYSISSGFAWHWIRQFPGKGLEWMGYIHYSGSTNYSPSLQGRISITRDSSINQFFLQLNSVTASDTATYYCARGYYGFGAWFVYWGQGTLVTVSA
VL: EIVLTQSPATMSASPGERVTMTCSATSSVTYMHWYQQKPGQSPKRWIYDTSKLASGVPARFSGSGSGTSYSLTISSMEAEDAATYYCQQWSSNPPTFGQGTKLEIKR
notes: Humanized antibody
Turning to B5, the Kd worked out at 0.8 nM in test [3], 2 nM in test [2] and 14 nM in test [4].

B6: huCD37-50 (antibody, human IgG1, kappa, V domains shown)
VH: QVQLQESGPGLLKPSQSLSLTCTVSGYSITSGFAWHWIRQHPGNKLEWMGYILYSGSTVYSPSLKSRISITRDTSKNHFFLQLNSVTAADTATYYCARGYYGYGAWFAYWGQGTLVTVSA
VL: EIVLTQSPATMSASPGERVTMTCSATSSVTYMHWYQQKPGQSPKRWIYDTSNLPYGVPARFSGSGSGTSYSLTISSMEAEDAATYYCQQWSDNPPTFGQGTKLEIKR
notes: Resurfaced (humanized) antibody
For the molecule B6, the Kd is 0.2 nM in test [3]; 0.43 nM and 0.68 nM in test [2]; 1.8 nM in test [4].

B7: huCD37-50-PEG4-mal-DM1 (antibody, human IgG1, kappa, V domains shown)
VH: QVQLQESGPGLLKPSQSLSLTCTVSGYSITSGFAWHWIRQHPGNKLEWMGYILYSGSTVYSPSLKSRISITRDTSKNHFFLQLNSVTAADTATYYCARGYYGYGAWFAYWGQGTLVTVSA
VL: EIVLTQSPATMSASPGERVTMTCSATSSVTYMHWYQQKPGQSPKRWIYDTSNLPYGVPARFSGSGSGTSYSLTISSMEAEDAATYYCQQWSDNPPTFGQGTKLEIKR
modifications: DM1 attached through PEG4-mal linker; attachment residues and load not stated
notes: PEG4-mal-DM1 conjugate of huCD37-50
Turning to B7, in test [2], the Kd is 1.1 nM.

B8: huCD37-51-SMCC-DM1 (antibody, human IgG1, kappa, V domains shown)
VH: EVQLVESGPEVLKPGESLSLTCTVSGYSISSGFAWHWIRQFPGKGLEWMGYIHYSGSTNYSPSLQGRISITRDSSINQFFLQLNSVTASDTATYYCARGYYGFGAWFVYWGQGTLVTVSA
VL: EIVLTQSPATMSASPGERVTMTCSATSSVTYMHWYQQKPGQSPKRWIYDTSKLASGVPARFSGSGSGTSYSLTISSMEAEDAATYYCQQWSSNPPTFGQGTKLEIKR
modifications: DM1 attached through SMCC linker; attachment residues and load not stated
notes: SMCC-DM1 conjugate of huCD37-51
In the case of B8, in test [1], the “EC50 … WST-8 assay, Daudi cells” value is 0.2 nM and the “EC50 of in vitro cytotoxicity, WST-8 assay, Granta-519 cells” value worked out at 0.25 nM. Moreover, in test [2], the Kd came to 1.6 nM.

B9: huCD37-57 (antibody, human IgG1, kappa, V domains shown)
VH: QVQLQESGPGLLKPSQSLSLTCTVSGYSITSGFAWHWIRQFPGKGLEWMGYILYSGSTVYSPSLKSRISITRDTSKNQFFLQLNSVTAADTATYYCARGYYGYGAWFAYWGQGTLVTVSA
VL: EIVLTQSPATMSASPGERVTMTCSATSSVTYMHWYQQKPGQSPRRWIYDTSNLASGVPARFSGSGSGTSYSLTISSMEAEDAATYYCQQWSDNPPTFGQGTKLEIKR
notes: Humanized antibody
For B9, the values for the Kd in test [2] and in test [4] were 0.3 nM and 2 nM, respectively.

B10: huCD37-57-SMCC-DM1 (antibody, human IgG1, kappa, V domains shown)
VH: QVQLQESGPGLLKPSQSLSLTCTVSGYSITSGFAWHWIRQFPGKGLEWMGYILYSGSTVYSPSLKSRISITRDTSKNQFFLQLNSVTAADTATYYCARGYYGYGAWFAYWGQGTLVTVSA
VL: EIVLTQSPATMSASPGERVTMTCSATSSVTYMHWYQQKPGQSPRRWIYDTSNLASGVPARFSGSGSGTSYSLTISSMEAEDAATYYCQQWSDNPPTFGQGTKLEIKR
modifications: DM1 attached through SMCC linker; attachment residues and load not stated
notes: SMCC-DM1 conjugate of huCD37-57
For B10, in test [1], the “EC50 … WST-8 assay, Daudi cells” value amounted to 0.35 nM. Besides, the Kd in test [2] stood at 0.34 nM.

(Values after US20110256153A1 (IMMUNOGEN, published 2011).)
